Measured values from patent US20200332017A1 (SALUBRIS CHENGDU BIOTECH, published 2020).
Residue numbers refer to the chain shown, from its start.

B1: humanized antibody huC1C1-V1 (antibody, human IgG1, kappa, V domains shown)
VH: EVQLVESGGGVVQPGRSLRLSCAASGFTFSNYGMSWVRQAPGKGLEWVASISSGGDDTYYPDNVKGRCTISRDNSKNTLYLQMNSLRAEDTAVYYCTRAGGKAMDYWGQGTLVTVSS
VL: EIVLTQSPATLSLSPGERATLSCRASQSIRDNLHWYQQKPGQSPRLLINYASQSISGIPARFSGSGSGTDFTLTISSLEPEDFAVYFCQQFNSWPLTFGQGTKVEIKR
notes: Human IgG1/kappa; also called humanized C1C1-V1
B2: humanized antibody huC1C1-V2 (antibody, human IgG1, kappa, V domains shown)
VH: B1 VH with C68F
VL: B1 VL
notes: Human IgG1/kappa
B3: humanized antibody huC1C1-V3 (antibody, human IgG1, kappa, V domains shown)
VH: B1 VH
VL: B1 VL with S43A
notes: Human IgG1/kappa
B4: humanized antibody huC1C1-V4 (antibody, human IgG1, kappa, V domains shown)
VH: B1 VH
VL: B1 VL with N49Y
notes: Human IgG1/kappa
B5: humanized antibody huC1C1-V5 (antibody, human IgG1, kappa, V domains shown)
VH: B1 VH
VL: B1 VL with F87Y
notes: Human IgG1/kappa; also called humanized C1C1-V5
B6: humanized antibody huC1C1-V6 (antibody, human IgG1, kappa, V domains shown)
VH: B1 VH
VL: B1 VL with S43A, N49Y, F87Y
notes: Human IgG1/kappa

These binders were tested against T1, human CD40-Fc protein (amino acid residue 21-193 of SEQ ID NO: 67 linked to N-terminus of amino acid residue … (human, biotin-labeled in the capture ELISA and in the benchmark blocking ELISA; unlabeled when coated in the ligand blocking ELISA) (assay: capture ELISA, biotin human CD40-Fc; mAb at 0 ng/mL (blank)).
T1 construct: also called biotin-labeled human CD40-Fc; human CD40-Fc-biotin
T1 sequence (chain, as listed by the source): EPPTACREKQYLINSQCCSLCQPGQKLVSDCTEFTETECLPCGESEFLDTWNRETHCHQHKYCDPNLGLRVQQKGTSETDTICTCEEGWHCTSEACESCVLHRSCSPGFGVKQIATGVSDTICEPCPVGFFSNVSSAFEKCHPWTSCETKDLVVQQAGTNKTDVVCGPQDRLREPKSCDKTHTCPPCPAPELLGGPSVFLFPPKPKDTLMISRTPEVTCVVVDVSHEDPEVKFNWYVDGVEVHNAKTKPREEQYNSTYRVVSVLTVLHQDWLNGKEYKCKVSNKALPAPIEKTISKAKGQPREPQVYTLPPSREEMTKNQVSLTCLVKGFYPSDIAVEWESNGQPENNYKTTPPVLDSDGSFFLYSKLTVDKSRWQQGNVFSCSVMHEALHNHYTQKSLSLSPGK
Experimental: (§1) Plates were washed 4 times with wash buffer (PBS+0.05% Tween-20, PBST) and then blocked with 200 μl/well blocking buffer (5% w/v non-fatty milk in PBST) for 2 hours at 37° C. […] After a final wash, plates were incubated with 100 μl/well ELISA substrate TMB (Innoreagents, Cat # TMB-S-002). The reaction was stopped in 15 minutes at 25° C. with 50 μl/well 1M H₂SO₄, and the absorbance was read at 450 nm and plotted against antibody concentration. Data were analyzed using Graphpad Prism software and EC₅₀ values were reported.

Binder	absorbance at 450 nm
B1	0.028 OD450
B2	0.027 OD450
B3	0.024 OD450
B4	0.025 OD450
B5	0.027 OD450

What follows are binders tested against T2, Human CD40-his protein (Acro biosystems, Cat # CD0-H5228) (human, UniProt P25942 21-193) (assay: SPR, Biacore; antibody captured, human CD40-his flowed).
T2 construct: Bought reagent; not shown: his tag
T2 sequence (P25942 21-193 limits assumed): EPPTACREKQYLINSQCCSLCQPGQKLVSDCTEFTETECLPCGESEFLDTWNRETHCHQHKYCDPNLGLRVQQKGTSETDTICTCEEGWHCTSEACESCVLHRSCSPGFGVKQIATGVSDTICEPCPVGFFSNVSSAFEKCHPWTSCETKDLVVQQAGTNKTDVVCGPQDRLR
Description: Briefly, goat anti-mouse IgG (GE healthcare, Cat # BR100838, Mouse Antibody Capture Kit) was covalently linked to a CM5 or a Protein G chip (carboxy methyl dextran coated chip) via primary amines, using a standard amine coupling kit provided by Biacore (GE healthcare, Pittsburgh, Pa., USA). Un-reacted moieties on the biosensor surface were blocked with ethanolamine. […] Then, human CD40-his (Acro biosystems, Cat # CD0-H5228) or cynomolgus monkey CD40-his protein (Acro biosystems, Cat # CD0-052H6) in HBS EP buffer (provided by Biacore) was flowed onto the chip at a flow rate of 30 μL/min. The antigen-antibody association kinetics was followed for 2 minutes and the dissociation kinetics was followed for 10 minutes. The association and dissociation curves were fit to a 1:1 Langmuir binding model using BIA evaluation software.

Binder	Kd	koff	kon
B6	0.0116 µM	0.00881 s⁻¹	763000 M⁻¹ s⁻¹

Each binder was assayed against T1, human CD40-Fc protein (amino acid …) (assay: capture ELISA; antibody captured, biotin-labeled human CD40-Fc in solution).
Experimental: as §1

Binder	EC50
B1	0.382 ng/mL
B2	0.428 ng/mL
B3	0.336 ng/mL
B4	0.267 ng/mL
B5	0.355 ng/mL

Each binder was assayed against T1, human CD40-Fc protein (amino acid …) (assay: capture ELISA, biotin human CD40-Fc; mAb at 16 ng/mL).
Experimental: as §1

Binder	absorbance at 450 nm
B1	0.353 OD450
B2	0.3 OD450
B3	0.357 OD450
B4	0.459 OD450
B5	0.34 OD450

Each binder was assayed against T1, human CD40-Fc protein (amino acid …) (assay: capture ELISA, biotin human CD40-Fc; mAb at 2000 ng/mL).
Experimental: as §1

Binder	absorbance at 450 nm
B1	1.78 OD450
B2	1.72 OD450
B3	1.71 OD450
B4	1.7 OD450
B5	1.68 OD450

The binders below were run against T1, human CD40-Fc protein (amino acid …) (assay: capture ELISA, biotin human CD40-Fc; mAb at 0.64 ng/mL).
Experimental: as §1

Binder	absorbance at 450 nm
B1	0.035 OD450
B2	0.029 OD450
B3	0.032 OD450
B4	0.039 OD450
B5	0.033 OD450

Each binder was assayed against T1, human CD40-Fc protein (amino acid …) (assay: capture ELISA, biotin human CD40-Fc; mAb at 80 ng/mL).
Experimental: as §1

Binder	absorbance at 450 nm
B1	1.12 OD450
B2	1.02 OD450
B3	1.15 OD450
B4	1.25 OD450
B5	1.1 OD450

These binders were tested against T1, human CD40-Fc protein (amino acid …) (assay: capture ELISA, biotin human CD40-Fc; mAb at 400 ng/mL).
Experimental: as §1

Binder	absorbance at 450 nm
B1	1.73 OD450
B2	1.62 OD450
B3	1.72 OD450
B4	1.63 OD450
B5	1.66 OD450

These binders were tested against T1, human CD40-Fc protein (amino acid …) (assay: capture ELISA, biotin human CD40-Fc; mAb at 3.2 ng/mL).
Experimental: as §1

Binder	absorbance at 450 nm
B1	0.083 OD450
B2	0.073 OD450
B3	0.083 OD450
B4	0.103 OD450
B5	0.083 OD450

The binders below were run against T1, human CD40-Fc protein (amino acid …) (assay: capture ELISA, biotin human CD40-Fc; mAb at 10000 ng/mL).
Experimental: as §1

Binder	absorbance at 450 nm
B1	1.9 OD450
B2	1.82 OD450
B3	1.8 OD450
B4	1.84 OD450
B5	1.77 OD450
